Data on one protein can be found in publication PMC9499683, “Isolation and Characterization of Homologically Expressed Methanol Dehydrogenase from Methylorubrum extorquens AM1 for the Development of Bioelectrocatalytical Systems” (International Journal of Molecular Sciences, 2022).

Holding throughout (test): purified protein
Details in all cases: pH 9.0, 30 °C, free enzyme, ammonium needed as activator

Substrate in series [1]: CCO
Substrate in series [2]: CO
In kind it is biochemical, Methylorubrum extorquens.

Substrate in series [3]: CCCCCO
In kind it is biochemical, Methylorubrum extorquens.

Substrate in series [4]: CCCCO
In kind it is biochemical, Methylorubrum extorquens.

B1: MDH-His6-tag (recombinant PQQ-dependent methanol dehydrogenase, PQQ-MDH) (Methylorubrum extorquens AM1) (protein)
chain: NDKLVELSKSDDNWVMPGKNYDSNNFSDLKQINKGNVKQLRPAWTFSTGLLNGHEGAPLVVDGKMYIHTSFPNNTFALGLDDPGTILWQDKPKQNPAARAVACCDLVNRGLAYWPGDGKTPALILKTQLDGNVAALNAETGETVWKVENSDIKVGSTLTIAPYVVKDKVIIGSSGAELGVRGYLTAYDVKTGEQVWRAYATGPDKDLLLASDFNIKNPHYGQKGLGTGTWEGDAWKIGGGTNWGWYAYDPGTNLIYFGTGNPAPWNETMRPGDNKWTMTIFGRDADTGEAKFGYQKTPHDEWDYAGVNVMMLSEQKDKDGKARKLLTHPDRNGIVYTLDRTDGALVSANKLDDTVNVFKSVDLKTGQPVRDPEYGTRMDHLAKDICPSAMGYHNQGHDSYDPKRELFFMGINHICMDWEPFMLPYRAGQFFVGATLNMYPGPKGDRQNYEGLGQIKAYNAITGDYKWEKMERFAVWGGTMATAGDLVFYGTLDGYLKARDSDTGDLLWKFKIPSGAIGYPMTYTHKGTQYVAIYYGVGGWPGVGLVFDLADPTAGLGAVGAFKKLANYTQMGGGVVVFSLDGKGPYDDPNVGEWKSAAK
notes: full-length mxaF ORF with leader peptide and C-terminal His6 tag, expressed from pCM160 in M. extorquens AM1; small subunit co-purified from host; Ni-NTA; PQQ and Ca2+; with Methanol dehydrogenase [cytochrome c] subunit 2
Usually Km stands for the substrate concentration at which the rate is half of its maximum. Broadly, the Vmax is the top rate of the reaction or transport when substrate is in excess. With B1, the Km in the series “purified protein [1]” is 610 ± 60 µM; in “purified protein [2]”, 360 ± 70 µM; in “purified protein [3]” it was 1400 ± 100 µM; in “purified protein [4]” it was 1900 ± 200 µM. Further, the Vmax in “purified protein [1]” is 2.9 µmol/min/mg; in the series “purified protein [2]”, 4.2 µmol/min/mg; in “purified protein [3]” it was 2.8 µmol/min/mg; in the series “purified protein [4]”, 2.7 µmol/min/mg.
